The target in one series is IFI16 HINab (UniProt Q16666 189-761). Put plainly: AlphaScreen.
The next series deals with IFI16 HINa (UniProt Q16666 189-389). As to the kind of experiment: AlphaScreen. (In general: Alpha assays give light when donor and acceptor beads are brought close together.)
IFI16 HINa, sequence (Q16666 189-389): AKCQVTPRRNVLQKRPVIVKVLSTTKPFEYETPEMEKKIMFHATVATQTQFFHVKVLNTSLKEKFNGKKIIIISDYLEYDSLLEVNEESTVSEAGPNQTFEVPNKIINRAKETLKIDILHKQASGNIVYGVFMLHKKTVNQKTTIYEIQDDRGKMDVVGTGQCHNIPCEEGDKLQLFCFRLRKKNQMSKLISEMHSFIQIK

IFI16 HINab, sequence (Q16666 189-761): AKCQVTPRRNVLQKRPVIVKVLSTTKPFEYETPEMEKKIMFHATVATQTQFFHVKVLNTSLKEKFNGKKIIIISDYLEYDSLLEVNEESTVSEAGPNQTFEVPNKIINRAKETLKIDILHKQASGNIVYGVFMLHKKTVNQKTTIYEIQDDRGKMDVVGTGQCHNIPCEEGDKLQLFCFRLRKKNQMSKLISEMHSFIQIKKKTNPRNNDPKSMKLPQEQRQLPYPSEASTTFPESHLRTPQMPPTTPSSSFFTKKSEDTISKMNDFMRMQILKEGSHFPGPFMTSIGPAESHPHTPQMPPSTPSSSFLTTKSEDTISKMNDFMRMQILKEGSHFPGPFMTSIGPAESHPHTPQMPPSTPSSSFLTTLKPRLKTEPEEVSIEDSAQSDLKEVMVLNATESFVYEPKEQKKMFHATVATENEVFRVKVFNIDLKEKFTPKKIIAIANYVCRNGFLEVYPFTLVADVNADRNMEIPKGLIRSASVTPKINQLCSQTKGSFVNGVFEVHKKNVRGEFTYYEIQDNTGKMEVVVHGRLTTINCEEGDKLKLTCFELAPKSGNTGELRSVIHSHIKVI

B1: dsVACV 70mer (dsDNA)
DNA 1: CCATCAGAAAGAGGTTTAATATTTTTGTGAGACCATCGAAGAGAGAAAGAGATAAAACTTTTTTACGACT
DNA 2: AGTCGTAAAAAAGTTTTATCTCTTTCTCTCTTCGATGGTCTCACAAAAATATTAAACCTCTTTCTGATGG
As to B1, the binding result was “binds” with IFI16 HINab and “no binding” with IFI16 HINa.

The record behind these values is article PMC3142795.
